Results: publication PMC4134136 (PLoS ONE, 2014)

Target: the molecule itself
Experiment: crystal structure; NOD1 CARD and Ub mixed 1:1, 1 mM each, in GF buffer (25 mM sodium phosphate, 25 mM NaCl, 5 mM DTT, pH 7.0); hanging drop, 100 mM PCB, 25% PEG 1500, pH 9.0 (crystals formed at pH ~8.6); 2.90 Å

B1: Caspase Recruitment Domain (CARD) of human NOD1, residues serine 16 to glycine 108 (domain or fragment)
chain: SHPHIQLLKSNRELLVTHIRNTQCLVDNLLKNDYFSAEDAEIVCACPTQPDKVRKILDLVQSKGEEVSEFFLYLLQQLADAYVDLRPWLLEIGLE
modifications: dimethyl-arsenic adduct on the sulfhydryl of Cys59 (formed in the crystallization buffer with cacodylate and DTT)
notes: NOD1, human, CARD, residues serine 16 to glycine 108; leucine and glutamic acid inserted between glycine 108 and the 6xHis-tag, from an XhoI restriction site; Purified as a monomer (gel filtration removed residual dimer); in the crystal a homodimer with swapped sixth helices; also called NOD1 CARD; CARD A
  binding result: binds
